This note sets out measurements from a protein production outcome set (Wang et al. 2014).

The data set is described as follows: label from the status in PepcDB records.

As to “MDQKEAPSFTEASVHDPSVIKVEDTFYVFGSHLAAAKTEDLRNWTQIATHVHEGNPLIPNVFVELAEAFEWANSNTLWAADVIQLEDGRFYMYYNACQGDAPRSALGVAVADDIEGPYENLGVFLKSGMWGEESPDGTIYDANVHPNAIDPHVFFDEEGKLWMVYGSYSGGIFILEMDPDTGFPLPGQGYGTHLMGGNHSRIEAPYIHYDKETEYYYLYVTFGGLDSTGGYNMRVARSKQPDGPYVDGEGHLMSEVRGAPGTLFDDASIEPYGVKQMGNFLFKRELGERGTGYVSPGHNSVYYDDEVDKIFLFFHTRFPERGEAHEIRVHQMFMNRKGWPVIAPYRYTGESLEKVKAKEVIGDYQWINHGKEISAEIKESVTVRLEKNHKVLGDVTGKWKKVGDYHVELQIDGETYYGVFLRQWDPVAEREVMTFTALSEEGIAIWGSQLEEKTDNEIVDAVYDDLTLEGTIISDVELPTRGMRQTTIAWSSSHEEVLSSSGKVNRPEIGEDDVVVSLTATISKGSAERIKTFELVVPGQTEGGLVAHYPLNGTLENAVDDARFGSGTVTGNRIDNPGGTIAFEQGIDGEAAVFDGTTGIRLPNGLISRNTYTVSFWLNPEQLTEFTTAFFAARSEHHWLSFVPRGHSGMNHDTMLWAGSAQWYDAGTGVKLPVGEWSHVAFSVDNGEIVIYLNGEERFRGENFPNLFTTPNAYFALGVNHWDAPFQGMIDELRIYDGVALTREEIVHLAKQKLEHHHHHH”, the protein production entry was “not failed”. The entry for “MDQLFRYPLHQIPLVAMAIIIALSVHEFAHAYVAYKFGDDTAKRQGRLTLSPMAHLDPIGMIAVLILGFGWARRVPVNPYNFKRPRLAGILVSIAGPISNLILSAIGLIIWYSLLTFGVLDSIPFAVADTLAQFFQIFIMLNIVLLVFNLLPIPPLDGYRVVEDLAPTNIRAKMTQYEKYGAIALLILVITPLSNYTIQPIFSVVIPYVFAFLNSIIAPIFGLL” is “failed”. The entry for “MDQLNKITPTGTEKVSESSCNKLEETCTKCGKNIYKKVTILGIDRIVKTMCECESKAWHEKRQHEEMLKKQNRLNELITNSLMDEKFRESNFENWDFNKGSRSMYNLGRRYADNFKECKQQGLGLLIYGSAGNGKTYLASAIANELLKQYIPVVCVSINGLLSRIQKTYNSWGKEAESDIIRSFINADLLIIDDLGTEKSSEWSRSMIYNIVDSRYRSKLPLIITSNLEINPSKRHGVLADQYHERTESRIFEMCTPVENTSKSIRIEEAKKKTELLRKILY” is “failed”; for “MDQTAEEKMVRERIRKKVNEVSSASQSLLSPVQDHINFTLQKAYFKCAYECFDRTRTHAEISRCAESCSVPITNAQNYFDNEMSVFQERLNRSLVVCQDKFEVAKQQKTRSEAVNDLEHCVNQTVDEAVKTLPNLVSRMKKALSITD” it is “failed”. Next, “MDRGGMKHREGGPGPRTEMSGYSVYEEENERLTENLKMKTSALKSLSIDIGNEVKYHNKMLGEMDSDFDSTGGLLGSTMGRLKILSRGSQAKLLCYMMLFAFFVFFVIYWFIKLR”: “failed”; “MDRIQEMTLFAALAGQTSFTGVARHVGLSTATVTRAVASLESRLGILLVVRTTRNMRLTKAGQRFAEDCRRLLADLSEAENAAAGVHALPAGTLTVTAPQMFGALHVTPVLTRFLSEYPAVDIRAILVDRVVSMLDEGVDVAVRIGALRDSSLTAIRVGSVRRMVCASPVYLTQHGTPRHPDDLQQHATISTSAPERPPHWAFRVDDQDYSVNVASRLSLTSFQASINAALQHWGLTQVPHYQIREHLHNGRLVCVLEDFEIAPEPVHVVYSEGRRGSSRVRSFVDFCVSALREDLQFEAAG”: “failed”; “MDRMWSPWRSAYVSEANDREPTDDESIFTALLREERDEENLILWRGEHVFVIMNRHPYNSGHLLILPYREVTQYDALNAPEQQALTAALDRCMGWLREAVSPDGFNVGMNLGRAAGAGIPDHLHAHVVPRWDGDTNFMATTANTKVLPEDLQTTYGKLRAAMAPDARDTTKPAAQKPSE”: “failed”. With “MDRMYEQNQMPHNNEAEQSVLGSIIIDPELINTTQEVLLPESFYRGAHQHIFRAMMHLNEDNKEIDVVTLMDQLSTEGTLNEAGGPQYLAELSTNVPTTRNVQYYTDIVSKHALKRRLIQTADSIANDGYNDELELDAILSDAERRILELSSSRESDGFKDIRDVLGQVYETAEELDQNSGQTPGIPTGYRDLDQMTAGFNRNDLIILAARPSVGKTAFALNIAQKVATHEDMYTVGIFSLEMGADQLATRMICSSGNVDSNRLRTGTMTEEDWSRFTIAVGKLSRTKIFIDDTPGIRINDLRSKCRRLKQEHGLDMIVIDYLQLIQGSGSRASDNRQQEVSEISRTLKALARELECPVIALSQLSRGVEQRQDKRPMMSDIRESGSIEQDADIVAFLYRDDYYNRGGDEDDDDDGGFEPQTNDENGEIEIIIAKQRNGPTGTVKLHFMKQYNKFTDIDYAHADMM”, the protein production result is given as “failed”. Consider “MDRNLKIFITVMLILSVISQFLPFKRDAVSLINVITNLAAFMGLSYACIYSRKVYPHLYLTLLLLSAAQFFSFLGDFTWFILESILSLNPFPSVADLFYLLYYPIFAAGIFTIPIKRYSDLRSIIDLLIILVASASAAWVFLLEPTVFAGGDFTEVLVSTLYVLGDLLIVFMIMDLIINKLGHLRSRTLHVFLASIIILLAADISFTYQNLTGIYAGGTPQDLLWAFSYILLLIAVNEFFKEDWSKPLYVEKKVTAVTYTPYIFIILFYLLTAYSVIKGGAEKSTVLLVSLGFIIVLFILRQHLSMKENMALLNDVENERRRAENYLEVAGSLIMVLDEKTRVKLINRRGLEILECDAGEVAGKNWFMTFVPPEDRGWREKLYTEKISSGSKGYHLTGEILTCKGDRKTVTWHVVFLREDGEFRGSIISGDDITELQRATRALEMSEMRYREIFELAPSPIISVGDDLIIRDCNRRAESVLGYQRGELIGRNLMDLIHPEDAGEDFEGERRLLRSNGDVIYADIGVARVGDERIIIIEDQTEIRRSLQEKELLLREIHHRVKNNLQIISSLLSIQERQLESEELSDVLRESRERIRSIALVHEHLYRSTNLRTIRIRNYLNNILSKLSQGQTHGKDVRISSSIEDLEFNLETSLPIGLMVNELVSNSLKHSGADNITVELRSLNGTLELTVKDDGIGLESPEVLEKSGSMGWYLIRALTDQLDGELKIETEDGLSVSLRFRELGYRERY”, for which the protein production result is “failed”. On to “MDRPERSEVLSPEDFLQAMPIGKTASILDLGAGTGFLTIPAAKLVDNTVFALDLDAKMLELIESKAKEAGLANVETLEASMDDIPLEANSVDVVLASLVLHEADSLADVLREVSRVVKTGGYFASLEFDTKGTDLKGPPMEIQISAEKLKEELAGFGFEVVKNWQLDEGMYVSIAVKKLEHHHHHH”, for which the protein production entry is “not failed”. In the case of “MDRRHEIYEWFRINRFKVDMTATCLLILLFGPVYLVADRPWLFLLSCSLLLPLAWRRTRPAVAAGVVILVCLVQWAVAAEPVAGQIAVPLVIYATAAYGPAWASRTVLLAGLLGGVMLTTRLFSTTAESGILGLTIGALYTVLIWMLVLVSWTLGDLTRVRRLQLQALEDRTRRLEVEQMQERKLAAADERSHIAREMHDIVAHSLSVIITQADGARYAAAAKPELATEALATIAATGRDSLGEMRRLLGVLRSDDDSPTRPQPRLSDLDELLLGFRAATLQVTFEQSGAPRRALPAGAELTAYRIIQEALTNVMKHAGPRATAAVTLAWQARGLQVDVVDDGRGAAADPPTAGGGNGLRGMGERVSLYDGSLTAGPEQGGGFRVSAFIPYSEA”, the protein production entry was “failed”. As for “MDRRRFLVGLLGLGLARGQGLRVEEVVGGLEVPWALAFLPDGGMLIAERPGRIRLFREGRLSTYAELSVYHRGESGLLGLALHPRFPQEPYVYAYRTVAEGGLRNQVVRLRHLGERGVLDRVVLDGIPARPHGLHSGGRIAFGPDGMLYVTTGEVYERELAQDLASLGGKILRLTPEGEPAPGNPFLGRRGARPEVYSLGHRNPQGLAWHPKTGELFSSEHGPSGEQGYGHDEVNLIVPGGNYGWPRVVGRGNDPRYRDPLYFWPQGFPPGNLAFFRGDLYVAGLRGQALLRLVLEGERGRWRVLRVETALSGFGRLREVQVGPDGALYVTTSNRDGRGQVRPGDDRVLRLL”, the protein production result is “not failed”.

Consider “MDRVMRDDLHIMPPPAPLAMQAQDFSAGFRDALAPPDSPQRDVAPWRVLAFSPAMAATLALVWLMGDWFSDSGISVLEAVLLALISFNFFWIAFAASTVLLGMLSLSRQPARARAGRAEPLKVALLMPVYNEVPWYVLGNARTMLEELKARGGQHQYAMFILSDTRDDAIAAQEQASVEALRTTLAPDLALYYRRRVENTDRKVGNIADWVAGWGGAWDAMLVLDADSLMTGRAIARLTDALARDPGAGLIQSFPQLIGAQSVFARMQQFANGVYGAAFAEGMARWCGQEGNYWGHNAIIRTAAFANCAGLPKLRSLSGREKLIMSHDFVEAGLLRRAGWSVRFLPRIRGSYEETPPTLIDHVLRDRRWCQGNLQHLNLLNARGFRSVSRFHMFHGAIGYLMSPIWFALLVMWALIGHGQDGSVLQYFSPDNPLFPQWPEMTEGRHVLIIVVMYAMLLLPKLLGVLALPLSGAHYSDFGGAGRFLLSFLSEVVLSILYAPILMVQQMIAVFRTFLGIQKGWSPQARDGGTYGLGTLVKCHMLETLSGLALGTGIALGLVSVWLAPIALSLALAVPLSALSGVSAGTARRLIGMREEFREPAITRSARAYRNELKTLLERGSRIHPAE”, for which the protein production result is “failed”.

As for “MDRWNMHKPMLCDSLPTASRTAAAILNLAQREDVTAEALAQLIQTDPALTGRILRFANAPAQGTRRPVASVIDAIDLVGLPAVRQFALSLSLIDAHREGRCEAFDYAAYWQKSLARAVALQSITAQASTVAPKEAFTLGLLADVGRLALATAWPEEYSECLRKADGEALIALERERFATDHDELTRMLLTDWGFPQVFIDALQLSQQDEIRDEGRTGRFARQLALAQHIADHRLAEEPRRAALSPLLRAEARRCGLGDEDLARLLADPPADWLDWTRTIGLEHHHHHH”, the protein production result is “not failed”. Turning to “MDSGCWLFGGEFEDSVFEERPERRSGPPASYCAKLCEPQWFYEETESSDDVEVLTLKKFKGDLAYRRQEYQKALQEYSSISEKLSSTNFAMKRDVQEGQARCLAHLGRHMEALEIAANLENKATNTDHLTTVLYLQLAICSSLQNLEKTIFCLQKLISLHPFNPWNWGKLAEAYLNLGPALSAALASSQKQHSFTSSDKTIKSFFPHSGKDCLLCFPETLPESSLFSVEANSSNSQKNEKALTNIQNCMAEKRETVLIETQLKACASFIRTRLLLQFTQPQQTSFALERNLRTQQEIEDKMKGFSFKEDTLLLIAEVMGEDIPEKIKDEVHPEVKCVGSVALTALVTVSSEEFEDKWFRKIKDHFCPFENQFHTEIQILA”, the protein production result was “failed”. The entry for “MDSGQIILNLVIIVITFFVAAFFVACEFALVQTRPSALEEEQKKRDKPSKRIATSLHMVRNLNEYLSTTQVGVSLAGIILGWIGEQTTEHFVLDFLSLFNLSVSTAVLRGISIVIGVFLLTYLEVVLTEIVPKNIAIDMPLKVMAVITTPLRWFHVMFYPFVWLLNVSSAGVVKMLGIPVANEDNDVYSQAEILNLSRNAVTGGELERNDYLYMERAFEFNDKIAKDIMIDRTQLVVIDINDTVKQAIRVYLQKRFSRLPVVANNDKDKILGYVYNYDLIRQGEVDDDIRVNKLLRNIITIPETTPIQAILQKMIDKQTPIVVVVDEYGGTSGIVTDKDIYEELFGTVNDEIDNVSNEYIEKQADGTYRISGKMTIYDFERYFKTDLQEFEDSDVVTLTGYILDNFPKIQAGDTIQIGNFNFKALDFENAYINWFEVSAQRDSTPDDHNDDQTQD” is “failed”; for “MDSMDHRIERLEYYIQLLVKTVDMDRYPFYALLIDKGLSKEEGEAVMRICDELSEELATQKAQGFVTFDKLLALFAGQLNEKLDVHETIFALYEQGLYQELMEVFIDIMKHFD” it is “not failed”. “MDSSNYFYGGNNICIINTKWGKHSGIGGYAEIIDTLVGNFTNISSWAKIGIRDHIHTNFLICDFVYKDNDHIMPPGISSFEDYWVKIGNDVWVGTNVTILRGVEVGDGAVIAAGSVVTKSIPPYAIVGGNPAKFIKWRFPFEVREKLLEIKLEHHHHHH”: the protein production entry is “failed”.
